Patent US20130287781A1

Key:
[1] = molecular target: Cynomolgus monkey NOGO (A56) plus GST tag (cynomolgus monkey); assay: direct ELISA on GST-NOGO-A56 from cynomolgus, Abs490
[2] = molecular target: Rat NOGO (A56) plus GST tag (rat); assay: direct ELISA on GST-NOGO-A56 from rat, Abs490
[3] = molecular target: Squirrel monkey NOGO (A56) plus GST tag (squirrel monkey); assay: direct ELISA on GST-NOGO-A56 from squirrel monkey, Abs490
[4] = molecular target: Cynomolgus monkey NOGO (A56) plus GST tag (cynomolgus monkey); assay: SPR (Biacore T100), Nogo-A orthologue amine-coupled to CM5, antibody 0.125-8 nM flowed over; mean
[5] = molecular target: Marmoset NOGO (A56) plus GST tag (marmoset); assay: as above
Sequence of Marmoset NOGO (A56) plus GST tag (marmoset) (chain, as listed by the source limits assumed): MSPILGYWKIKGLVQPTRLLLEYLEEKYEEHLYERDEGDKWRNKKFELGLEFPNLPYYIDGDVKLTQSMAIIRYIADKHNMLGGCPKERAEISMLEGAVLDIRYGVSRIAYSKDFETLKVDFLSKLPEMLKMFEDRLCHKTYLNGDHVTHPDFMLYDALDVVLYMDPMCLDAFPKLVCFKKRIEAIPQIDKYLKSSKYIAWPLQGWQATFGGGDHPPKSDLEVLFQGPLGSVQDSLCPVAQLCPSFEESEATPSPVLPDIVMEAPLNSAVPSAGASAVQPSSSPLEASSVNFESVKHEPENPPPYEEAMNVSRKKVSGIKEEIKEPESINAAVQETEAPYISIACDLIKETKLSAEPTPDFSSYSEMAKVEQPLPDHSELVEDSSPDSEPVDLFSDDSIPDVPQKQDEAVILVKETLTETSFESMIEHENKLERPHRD

[6] = molecular target: Rat NOGO (A56) plus GST tag (rat); assay: as above
[7] = molecular target: Squirrel monkey NOGO (A56) plus GST tag (squirrel monkey); assay: as above
[8] = molecular target: GST-human NOGO-A56 (human); assay: SPR (Biacore T100), reverse format: antibody captured by Protein A, GST-NOGO-A56 flowed over; mean
Sequence of GST-human NOGO-A56 (human) (chain, as listed by the source limits assumed): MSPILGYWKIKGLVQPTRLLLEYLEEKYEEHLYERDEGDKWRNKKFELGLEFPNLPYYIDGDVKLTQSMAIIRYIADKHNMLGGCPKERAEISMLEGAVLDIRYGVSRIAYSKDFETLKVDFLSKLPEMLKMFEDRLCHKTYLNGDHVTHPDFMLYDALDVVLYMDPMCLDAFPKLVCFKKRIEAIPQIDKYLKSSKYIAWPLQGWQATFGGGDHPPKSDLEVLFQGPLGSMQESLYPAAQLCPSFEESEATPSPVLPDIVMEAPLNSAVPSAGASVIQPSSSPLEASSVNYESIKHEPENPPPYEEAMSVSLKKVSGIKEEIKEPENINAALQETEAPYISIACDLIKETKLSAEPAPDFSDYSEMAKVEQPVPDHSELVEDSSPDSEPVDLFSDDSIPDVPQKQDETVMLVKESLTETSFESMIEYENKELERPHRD

[9] = molecular target: Cynomolgus monkey NOGO (A56) plus GST tag (cynomolgus monkey); assay: as above
[10] = molecular target: Marmoset NOGO (A56) plus GST tag (marmoset); assay: as above
[11] = molecular target: Rat NOGO (A56) plus GST tag (rat); assay: as above
[12] = molecular target: Squirrel monkey NOGO (A56) plus GST tag (squirrel monkey); assay: as above
[13] = molecular target: GST-human NOGO-A56 (human); assay: SPR (Biacore T100), human Nogo-A amine-coupled to CM5, antibody 0.125-8 nM flowed over; mean
[14] = molecular target: Marmoset NOGO (A56) plus GST tag (marmoset); assay: direct ELISA on GST-NOGO-A56 from marmoset, Abs490

Sequence of Rat NOGO (A56) plus GST tag (rat) (chain, as listed by the source limits assumed): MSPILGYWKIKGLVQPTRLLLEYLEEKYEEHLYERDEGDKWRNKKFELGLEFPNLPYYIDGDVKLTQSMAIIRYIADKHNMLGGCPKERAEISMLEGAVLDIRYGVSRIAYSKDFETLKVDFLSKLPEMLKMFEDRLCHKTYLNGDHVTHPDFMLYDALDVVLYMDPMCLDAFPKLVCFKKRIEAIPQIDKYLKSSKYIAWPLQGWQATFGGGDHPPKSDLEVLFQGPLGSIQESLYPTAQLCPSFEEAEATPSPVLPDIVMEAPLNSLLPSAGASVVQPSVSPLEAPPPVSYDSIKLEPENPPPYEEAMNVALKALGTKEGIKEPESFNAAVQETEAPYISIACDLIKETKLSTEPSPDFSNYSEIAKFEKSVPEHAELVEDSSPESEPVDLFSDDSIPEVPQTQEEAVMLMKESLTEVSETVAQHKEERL
Sequence of Cynomolgus monkey NOGO (A56) plus GST tag (cynomolgus monkey) (chain, as listed by the source limits assumed): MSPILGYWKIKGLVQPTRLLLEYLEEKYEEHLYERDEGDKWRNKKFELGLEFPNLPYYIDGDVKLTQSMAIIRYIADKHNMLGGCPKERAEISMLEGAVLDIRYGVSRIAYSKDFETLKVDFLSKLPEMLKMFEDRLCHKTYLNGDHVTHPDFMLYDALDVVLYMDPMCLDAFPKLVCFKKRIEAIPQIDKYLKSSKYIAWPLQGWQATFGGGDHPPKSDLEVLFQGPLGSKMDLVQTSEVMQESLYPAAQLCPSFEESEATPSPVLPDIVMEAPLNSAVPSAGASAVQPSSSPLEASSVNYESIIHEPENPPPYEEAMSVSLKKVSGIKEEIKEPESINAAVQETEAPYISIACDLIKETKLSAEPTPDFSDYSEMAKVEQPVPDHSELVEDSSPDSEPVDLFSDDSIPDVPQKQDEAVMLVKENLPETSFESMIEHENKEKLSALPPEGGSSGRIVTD
Sequence of Squirrel monkey NOGO (A56) plus GST tag (squirrel monkey) (chain, as listed by the source limits assumed): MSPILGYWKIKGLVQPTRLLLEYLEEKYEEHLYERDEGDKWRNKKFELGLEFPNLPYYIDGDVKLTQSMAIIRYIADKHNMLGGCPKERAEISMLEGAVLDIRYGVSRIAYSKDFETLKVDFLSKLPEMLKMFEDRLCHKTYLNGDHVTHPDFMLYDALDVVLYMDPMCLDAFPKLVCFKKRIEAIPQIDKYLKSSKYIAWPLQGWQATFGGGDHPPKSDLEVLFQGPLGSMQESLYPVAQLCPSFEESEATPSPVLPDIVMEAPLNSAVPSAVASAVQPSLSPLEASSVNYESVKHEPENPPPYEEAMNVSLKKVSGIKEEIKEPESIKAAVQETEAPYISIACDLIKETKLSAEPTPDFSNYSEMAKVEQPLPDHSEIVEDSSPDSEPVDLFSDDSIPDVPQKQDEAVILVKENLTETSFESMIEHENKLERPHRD

- EC50 (read off the curve) [1]: 0.06 µg/mL
- EC50 (read off the curve) [2]: 0.06 µg/mL
- EC50 (read off the curve) [3]: 0.04 µg/mL
- Kd [4]: 0.23 nM
- Kd [5]: 0.24 nM
- Kd [6]: 0.11 nM
- Kd [7]: 0.26 nM
- Kd [8]: 0.57 nM
- Kd [9]: 0.76 nM
- Kd [10]: 1.33 nM
- Kd [11]: 0.64 nM
- Kd [12]: 2.69 nM
- Kd [13]: 0.19 nM
- EC50 (read off the curve) [14]: 0.04 µg/mL
Substance: chimeric 11C7 (antibody)
